Assay results reported in paper PMC5534430, “Crystal structure of a Pseudomonas malonate decarboxylase holoenzyme hetero-tetramer” (Nature Communications, 2017).
One block for each molecule: values may come before it.

Experiments:
[1] = target: T1, MDC hetero-tetramer (MdcA active site) (Pseudomonas aeruginosa, UniProt Q9I6T0); assay: X-ray crystal structure, […] Å; format: binding; conditions: malonate from the crystallization solution; MdcA active site between domains AN and AC; apo MdcC
T1 construct: hybrid hetero-tetramer: full-length MdcA (1-554), MdcD, MdcE of P. aeruginosa and full-length MdcC of P. fluorescens without prosthetic group; only MdcE N-terminal His-tagged; E. coli Rosetta; 140 kD, 1:1:1:1; with Malonate decarboxylase acyl carrier protein (malonate decarboxylase subunit delta), Pseudomonas fluorescens; Malonate decarboxylase subunit beta; Malonate decarboxylase subunit gamma

[2] = target: MdcE subunit of malonate decarboxylase (P. aeruginosa), N-terminal His tag (P. aeruginosa); assay: SEC; gel filtration of the co-expressed, purified MdcD–MdcE complex
purified protein = substrate: CC(C)(COP(=O)(O)OP(=O)(O)OC[C@H]1O[C@@H](n2cnc3c(N)ncnc32)[C@H](O)[C@@H]1OP(=O)(O)O)[C@@H](O)C(=O)NCCC(=O)NCCSC(=O)CC(=O)O; assay: purified protein; format: biochemical, Pseudomonas aeruginosa; conditions: decarboxylation, 2.5 μM enzyme, 20 mM Tris pH 8.0, Hill equation fit, Hill coefficient 1.68 ± 0.13

T1 sequence (Q4K4F7 whole entry, one chain of several, further chain, the tested form may be a part): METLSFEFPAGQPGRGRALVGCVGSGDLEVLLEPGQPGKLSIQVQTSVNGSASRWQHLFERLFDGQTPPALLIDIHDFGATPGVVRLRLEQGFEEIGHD
T1 sequence (Q9I6T0 entry or part of it, one chain of several): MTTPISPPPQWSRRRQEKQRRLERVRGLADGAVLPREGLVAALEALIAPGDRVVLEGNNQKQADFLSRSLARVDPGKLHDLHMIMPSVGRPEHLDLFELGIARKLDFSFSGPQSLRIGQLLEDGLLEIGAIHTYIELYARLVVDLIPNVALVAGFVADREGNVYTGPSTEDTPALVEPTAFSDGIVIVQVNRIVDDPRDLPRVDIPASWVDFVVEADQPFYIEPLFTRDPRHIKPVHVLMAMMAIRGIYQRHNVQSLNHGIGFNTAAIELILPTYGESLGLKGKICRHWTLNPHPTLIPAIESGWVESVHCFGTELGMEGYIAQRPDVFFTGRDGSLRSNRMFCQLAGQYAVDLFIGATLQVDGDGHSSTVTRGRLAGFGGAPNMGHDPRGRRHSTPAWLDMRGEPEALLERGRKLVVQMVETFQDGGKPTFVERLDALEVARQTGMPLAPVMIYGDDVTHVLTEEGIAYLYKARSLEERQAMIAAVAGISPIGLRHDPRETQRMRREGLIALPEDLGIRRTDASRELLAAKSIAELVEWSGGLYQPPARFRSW

Molecule: O=C(O)CC(=O)O [malonate]
X-ray crystal structure, 2.2 Å [1]: A malonate molecule from the crystallization solution is bound in the active site

stoichiometry N [2]: 1
B1: MdcD subunit of malonate decarboxylase (P. aeruginosa) (natural protein)
chain: MTDVARLLALRSFTELGARQRARALLDAGSFRELLDPFAGVQSPWLERQGIVPQADDGVVVARGLLDGQPAVLAAIEGAFQGGSLGEVSGAKIAGALELAAEDNRNGVPTRALLLLETGGVRLQEANLGLAAIAEIQAAIVDLQRYQPVVAVIAGPVGCFGGMSIAAGLCSYVLVTREARLGLNGPQVIEQEAGIAEYDSRDRPFIWSLTGGEQRFASGLADAYLADDLDEVRTSVLAYFAKGLPARPRCRRAEDYLRRLGDLDTAEQPDAAGVRRLYQGLGQGDAT

B2: MdcD–MdcE complex (Pseudomonas aeruginosa PAO1) (protein)
chain 1: B1 chain
chain 2: MSQPFASRGLAWFQALAGSLAPRPGDPASLRVADAELDGYPVRFLAVVPDPDNPFPRARQGEVGLLEGWGLAAAVDEALEADREAPRKRALLAIVDVPSQAYGRREEALGIHQALAGAVDAYARARLAGHPLIGLLVGKAMSGAFLAHGYQANRLIALHDPGVMVHAMGKAAAARITLRSVEELEALAAKVPPMAYDIDSYASLGLLWRTLPVETVEVPSTADLVRVRTCLGEALADILGGPRDLGGRLGAANREASARVRRLLREQW
notes: full-length; N-terminal His-tagged MdcE (28 kD), untagged MdcD (30 kD); co-expressed in E. coli BL21Star (DE3) from pCDFDuet; 1:1 hetero-dimer in solution
K0.5 (purified protein): 100 ± 5 µM | kcat (purified protein): 2.3 ± 0.1 s⁻¹
